Data reported in the nanobody polyreactivity screen of Harvey et al. (2022).

Test: yeast display, Sf9 membrane polyspecificity reagent, FACS + sequencing; frameworks hold sequencing errors
Procedure, shortened: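 Genes from sorted yeast were amplified by colony PCR, read by MiSeq 2 × 250 sequencing and filtered on CDR length. These cells carried a synthetic nanobody library in Saccharomyces cerevisiae BJ5465 and were sorted by FACS into low and high (top ~1%) gates on anti-HA and streptavidin fluorescence. Polyreactivity is labelled according to the gate of origin.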

Sequence | polyreactivity (PSR sort gate)
QVHLVESGGGLVQAGGSLRLSCAASGRTFAPNAMGWYIQAPGKERELVAAISYNSGTTYYADSVKGRFTISRDNAKNTVYLQMNSLKPEDTAVYYCAARRYYKYDWGQGTQVTVSS | high polyreactivity
QVQLVESGGGLVQAGGSLRLSCAASGFTFSKYTMGWYRPAPGKERELVAAITSGGSTNYADSVKGRFTISRDNAKNTVYLQMNSLKPEDTAVYYCNKRHIAHNGVGAGLELDYWGQGTQVTVSS | low polyreactivity
QVQLVESGGGLVQAGGSLRLSCAASRSTFEIYAMGWYRPAPGKERELFAAISSGGSTNYADSVKGRFTISRDNAKNTVYLQMKSLITEDTAVYYCVYAIQFYYWGQGTQVTVSS | low polyreactivity
QVQLVESGGGLVQAGGILRLSCDASGSIFVYNAMGWYRQAPGKERELVAGITFIGGSTYYADSVKGRFTISRDNAKNTVYLQMNSLKPEDTAVYYCNADVAPGIFYGYDSWGQGTQVTVSS | low polyreactivity
QVQLVESGGGLVQAGGSLRLSCAASGSIFSSYAMGWYRQAPGKERELVASISWRSGSTYYADSVKGRFTISRDNAKNTVYLQMNSLKPEDTAVYYCATAYYRYYKYRFYYWGQGTQVTVSS | high polyreactivity
QVQLVESGGGLVQAGGSLRLSCAASGSTFTKNAMGWYRQAPGKERELVADISFSGGSTYYADSVKGRFTISRDNAKNTVYLQTNRLKPEDTAVYDCAADRHRALPRFDDWGQGTQVTVAS | low polyreactivity
QVQLEESGGGLVQAGGSLRLSCAASGRTIQDNAMGWYRQAHGKERELVAAIRDNGGSTYYADSVKGRFTISRDNAKNTVFLQMNSLKPEDTAVYYCAADQGTGSYDYWGQGTQVTVSS | low polyreactivity
QVHLVESGGGLVQAGGSLRLSCAASGFTFGIYAMGWYRQAPGKERELVAAIRKGGGSTYYADSVKGRFTISRDNAKNTVYLQMNSLKPEDTAVYYCAADSYRDWHDYWGQGTQVTVSS | low polyreactivity
QVQLVESGGGLVQAGGSLRLSCAASGFILGSNVMGWYRQAPGKERELVAAISYSGGSTYYADSVKGRFTISRDNAKNTVYLQMNSLKPEDTAVYYCARRLTREYDYWGQGSQVTVSS | low polyreactivity
QDQLVESGRGLVQAGGSLRLSCAASGSINATNAMGWYRQAPGKERELVPSISYSVSRTYYADSVKGRFTISRDNAKNTVYFQMNSLTPEDTAVYYCAVRQVNWFGIGYEDDYCGQGTQVTVSS | low polyreactivity
QVQLVESGGGLVQAGGSLRLRCAASGITFRNYAMGWYRQAPGKEMEFVATISRRAGSTYYADSVKGRFTISRDNAKNTVYLQMNRLKPEDTAVYYCAVRPSYVYFLGARYDYWGQGTQVTVSS | high polyreactivity
QVQLVESGGGLVQAGGSLRLSCASSGLTFRYNAMGWYRQAPGKERELVAAIRTSGGSTYYADSVKGRFTISRDNAKNTVYLQMNSLKPEDTAVYYCAARSKSYYGGYARGYWGQGTQVTVSS | high polyreactivity
QVQLVESGGGLVQAGGSLRLSWAASGFIFAYYAMGWYTPAPGKERELVAAISKRGGSTYYADSVKGRFTISRDNAKNTVYLQMNSLKPEDTAVYYCAADGHGGYGYWGQGTQVTVSS | high polyreactivity
QVQLVESGGGLVQAGGSLRLSCAASGFTFHNYAMGWYRQAPGKEREFVAAITRNTASTYYADSVKGRFTISRDNAKNTVYLQMNSLNPEDTAVYYCAATDKKHRTAYDSWGQGTQVTVSS | low polyreactivity
QVQLVESGGGLVQAGGSLRLICAASGFTFFAYAMGWYRQAPGKERELVAGISRSGGRTYYADSVKGRFTISRDNAKNTVYLQMNSLKPEDTAVYYCAAGIPVTSRFYGMDWGQGTQVTVSS | high polyreactivity
QVQLVESGGGLAQAGGSLRLSCAASGRIFSVNVMGWYRQAPGKERELVAAITWSVGSTYYADSVKGRFTISRDNAKNTVYLQMNSLKPEDTAVFYCAARVPPVYGRVGGYHYWGQGTQVTVSS | low polyreactivity
QVQLVESGGRLVQAGGSLLLSCDASGSIFRHYAMGWYRQAPWQERELVAAISAIGGSTYADSVKGRFTISRDNAKNTVYLQMNSLIPEDTGVYYCNARSYTSYVYHEAGEFDYWGQGTQVTVSS | low polyreactivity
QVQLVESGGGLVQAGGSLRLSCAASGSTLSDKSIGWYRQAPGKEMELVASISWSGGTYYADSVKGRFTISRDNAKNTVYLQMNSLKPEDTAVYYCAAYIYYNYSRQYLYDYWGQGTQVTVSS | low polyreactivity
QVQLVESGGGLVQAGGSLRLSCAASGSIFHWYVMGWYRQAPGKERELVASISWSSGSTYADSVKGRFTISRDNGKNTVYLQMNSLKPEDTAVYFCNAKTYYPPFGYWGQGTQVTVSS | low polyreactivity
QVQLVESGGGLVQAGGSLRLSCAASGSTFYDYAMGWYRQAPGKERELVAGIRNGGSTNYADSVKGRFTISRDNAKNTVYLQMNSLIPEDTAVYYCAAPRWDGFYSYYRVVWGIFDYWGQGTQVTVSS | low polyreactivity
QVQLRESGGGLVQAGGSLRLSCAASGRILYSYAMGWYRQAPGKERELVAAISWRGGPTYYADSVKGRFTISRDYAKNSVYLPMNSLKPEDTAVYYCAAEFYDLPWLYDYWGQGTQVTVSS | low polyreactivity
QVQLVESGGGLVQAGGSLRLSCAASGNIFPRYAMGWYRQAPGKERELVARISSGGSTDYADSVKGRFTISRDNAKNTVYLQMNSLKPEDTAVYYCAAEYYSQTVNYRRVVGYGYWGQGTQVTVSS | high polyreactivity
